B1: SV40 VP1 coat protein (natural protein, simian virus 40 (SV40), UniProt P03087 1-362, looked up)
chain: MAPTKRKGSCPGAAPKKPKEPVQVPKLVIKGGIEVLGVKTGVDSFTEVECFLNPQMGNPDEHQKGLSKSLAAEKQFTDDSPDKEQLPCYSVARIPLPNINEDLTCGNILMWEAVTVKTEVIGVTAMLNLHSGTQKTHENGAGKPIQGSNFHFFAVGGEPLELQGVLANYRTKYPAQTVTPKNATVDSQQMNTDHKAVLDKDNAYPVECWVPDPSKNENTRYFGTYTGGENVPPVLHITNTATTVLLDEQGVGPLCKADSLYVSAVDICGLFTNTSGTQQWKGLPRYFKITLRKRSVKNPYPISFLLSDLINRRTQRVDGQPMIGMSSQVEEVRVYEDTEELPGDPDMIRYIDEFGQTTTRMQ
notes: major capsid protein VP1 of simian virus 40, native protein of the virus (genome from pUCSV40); no residues stated; Stood in the assays as part of viral particles or of VP1 pentamers; the introduction says the capsid is 72 pentamers of VP1; source: SV40 virions purified from SV40-infected or viral genome-transfected CV-1 cells (OptiPrep gradient); input virus in S1 and S2 fractions and whole cell …
B2: SV40 VP2 (natural protein)
chain: MGAALTLLGDLIATVSEAAAATGFSVAEIAAGEAAAAIEVQLASVATVEGLTTSEAIAAIGLIPQAYAVISGAPAAIAGFAALLQTVTGVSAVAQVGYRFFSDWDHKVSTVGLYQQPGMAVDLYRPDDYYDILFPGVQTFVHSVQYLDPRHWGPTLFNAISQAFWRVIQNDIPRLTSQELERRTQRYLRDSLARFLEETTWTVINAPVNWYNSLQDYYSTLSPIRPTMVRQVANREGLQISFGHTYDNIDEADSIQQVTERWEAQSQSPNVQSGEFIEKFEAPGGANQRTAPQWMLPLLLGLYGSVTSALKAYEDGPNKKKRKLSRGSSQKTKGTSASAKARHKRRNRSSRS
notes: minor capsid protein VP2 of simian virus 40, native protein of the virus; contains all of VP3 plus an additional N-terminal extension; Detected with a VP2/VP3 antibody that sees both proteins; source: SV40 virions purified from SV40-infected or viral genome-transfected CV-1 cells (OptiPrep gradient); input virus in S1 and S2 fractions of infected CV-1 cells

Legend:
[1] = target: the molecule itself; assay: sucrose gradient sedimentation; S1 of CV-1 cells transfected with the SV40 genome for 48 hrs; continuous 20-40% sucrose gradient, 49,500 rpm, 50 min, 4°C; fractions blotted for VP1
SV40 VP1 coat protein = target: B1; assay: co-IP; S2 (Triton X-100 extract of P1, ER-localized virus) from CV-1 cells infected with SV40 for 12 hrs; precipitated with VP1 monoclonal antibodies (CC10 and BC11), Protein G-Dynabeads, wash 50 mM Hepes pH 7.5, 500 mM NaCl, 1% Triton X-100; blot with VP2/VP3 antibody; conditions: partners not purified

Row | Binder | stoichiometry N [1] | binding result (SV40 VP1 coat protein)
1 | B1 | 5 | 
2 | B2 |  | binds
